# B1: library; numbered along this chain (parent)
# chain: MRKPRAAVGSGHRKQAASQEGRQKHAKNNSQAKPSACDGLARQPEEVVLQASVSSYHLFRDVAEVTAFRGSLLSWYDQEKRDLPWRRRAEDEMDLDRRAYAVWVSEVMLQQTQVATVINYYTGWMQKWPTLQDLASASLEEVNQLWAGLGYYSRGRRLQEGARKVVEELGGHMPRTAETLQQLLPGVGRYTAGAIASIAFGQATGVVDGNVARVLCRVRAIGADPSSTLVSQQLWGLAQQLVDPARPGDFNQAAMELGATVCTPQRPLCSQCPVESLCRARQRVEQEQLLASGSLSGSPDVEECAPNTGQCHLCLPPSEPWDQTLGVVNFPRKASRKPPREESSATCVLEQPGALGAQILLVQRPNSGLLAGLWEFPSVTWEPSEQLQRKALLQELQRWAGPLPATHLRHLGEVVHTFSHIKLTYQVYGLALEGQTPVTTVPPGARWLTQEEFHTAAVSTAMKKVFRVYQGQQPGTCMGSKRSQVSSPCSRKKPRMGQQVLDNFFRSHISTDAHSLNSAAQ
# Variants of: B1
# Test: 8OG:A repair function score (normalized; synonymous = 0, nonsense = -1) (normalized log-likelihood score); higher = more repair activity (WT-like)
# Conditions: with 8OG:A DNA repair reporter (GFP) in HEK-293 MUTYH KO cells
# Protocol: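 Saturation mutagenesis (NNN codon scan) of the MUTYH cDNA (521-aa nuclear isoform NM_001048174.1 / NP_001041639), stably expressed under doxycycline induction in HEK-293 MUTYH knockout cells. Cells were co-transfected with an 8OG:A-bearing GFP repair reporter plus mCherry and sorted 72 h later into GFP+ and GFP− bins, three replicates per tile. The Rosace log2 enrichment (GFP+ vs GFP−) was converted per tile to a normalized function score with synonymous variants centered at 0 and nonsense variants (codons 1-471) at -1; low-abundance variants were removed.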
row,Variant,8OG:A repair function score
1,I118H,0.000662
2,P402N,-0.282
3,V415W,0.0208
4,Q386G,0.0232
5,M125W,-0.408
6,E45N,0.01
7,L257D,-0.98
8,E168L,-0.0373
9,G188H,-0.662
10,A405F,0.0223
11,A212S,-0.131
12,A203K,0.0825
13,I195T,-0.534
14,A238S,-0.0308
15,Q397D,-0.0883
16,R157I,-0.517
17,M93P,-0.0336
18,K422W,-0.317
19,Q386F,-0.144
20,E167H,-0.0317
21,T324K,0.056
22,G372L,-0.351
23,E90C,-0.00217
24,G309W,-0.149

row,Variant,8OG:A repair function score
1,P331R,-0.474
2,K390E,-0.0669
3,W235G,-0.61
4,M173V,-0.0935
5,Q110G,0.0252
6,L369K,-0.206
7,T308Y,-0.0509
8,L289K,-0.0314
9,P174V,-0.797
10,L58T,-0.0284
11,N119P,-0.0904
12,L411T,-0.469
13,E178F,-0.0911
14,P443I,0.0878
15,F250R,-1.01
16,V301M,-0.126
17,G70M,-0.00743
18,L180I,-0.119
19,W235A,-0.284
20,L257M,-0.192
21,R279G,-0.388
22,Q50G,-0.0798
23,I198Y,-0.792
24,E350M,0.00868

row,Variant,8OG:A repair function score
1,R88Y,-0.0224
2,L373M,-0.286
3,A431S,0.129
4,G353S,-0.0386
5,E178D,-0.000297
6,R279I,-0.172
7,E285R,0.00385
8,G471E,-0.0561
9,G475A,0.000317
10,A36S,-0.0113
11,L268S,-0.00947
12,F376V,-0.809
13,V441H,-0.533
14,I359L,0.0476
15,Q288F,-0.016
16,G434E,0.0175
17,P129W,-0.109
18,M478P,-0.0126
19,A147K,-0.229
20,D322V,0.0232
21,E90R,0.0046
22,G353D,0.0347
23,C272T,-1.24
24,D61S,-0.013

row,Variant,8OG:A repair function score
1,N307H,-0.0535
2,E45G,0.13
3,T191D,-1.01
4,T324A,-0.0315
5,D94I,-0.0559
6,G479S,0.00355
7,A513Y,-0.00892
8,L501T,-0.0124
9,L393G,-0.22
10,L295C,-0.0222
11,G497R,-0.0166
12,E342A,-0.0199
13,S226Q,0.176
14,P443E,-0.318
15,Q310N,0.00143
16,C278D,-1.08
17,A196R,-0.93
18,F504A,0.00928
19,Q394T,-0.314
20,V117N,-1.21
21,E46Y,-0.0657
22,E385Q,0.29
23,A245N,-0.0246
24,R217V,-1.01

row,Variant,8OG:A repair function score
1,L370E,-1.06
2,H514T,-0.02
3,E160C,-0.0918
4,T406A,0.32
5,N329K,-0.105
6,G148L,-1.31
7,V166P,-0.858
8,K492L,-0.0333
9,L268T,0.012
10,R506G,-0.0057
11,Q351F,-0.101
12,A67E,-0.0141
13,W75T,-3.63
14,R189F,-0.222
15,L396I,-0.113
16,S367Q,-0.113
17,G372I,-0.775
18,A41Y,-0.107
19,G297R,-0.0667
20,S367T,0.119
21,T324H,-0.0241
22,Q498E,0.0145
23,E385L,0.0198
24,R97G,-0.0171

row,Variant,8OG:A repair function score
1,K80F,-0.364
2,E375N,-0.407
3,V117Y,-1.28
4,R398T,-0.326
5,E382T,0.196
6,A345N,-0.356
7,S292E,-0.0389
8,Q363D,-0.431
9,Q521A,0.0136
10,V348T,-0.732
11,A520M,0.0283
12,A199D,-1.07
13,A345Y,-0.126
14,T204E,0.00943
15,R60Y,-0.014
16,Q473L,-0.0116
17,T308P,-0.0519
18,K164P,-1.12
19,R389Y,-0.0127
20,R163F,-0.174
21,L349G,-1.03
22,S270G,-0.0285
23,E382R,-0.0901
24,Q240K,-0.932

row,Variant,8OG:A repair function score
1,T260H,-0.293
2,P402V,-0.0663
3,P225E,-0.604
4,A431D,-0.204
5,A519T,-0.0144
6,G309A,-0.0354
7,L396T,-0.534
8,R60I,-0.0738
9,A194P,-1.06
10,Q202W,-0.586
11,V117Q,-1.26
12,S483C,0.025
13,Q473S,0.00408
14,P244N,-0.467
15,V301G,-0.279
16,Q282Y,-0.0373
17,T122H,0.0576
18,Q470D,-0.0832
19,A51I,-0.041
20,Q358V,0.112
21,D94A,-0.329
22,A137Q,-0.0812
23,A135D,-0.636

# Source: the supplement of paper PMC11908140
